Earlier results on one substance are cited in PMC7340539.

The target of the data set is CD47 (Homo sapiens) (UniProt Q08722).
Sequence of UniProt Q08722 (Q08722 19-323): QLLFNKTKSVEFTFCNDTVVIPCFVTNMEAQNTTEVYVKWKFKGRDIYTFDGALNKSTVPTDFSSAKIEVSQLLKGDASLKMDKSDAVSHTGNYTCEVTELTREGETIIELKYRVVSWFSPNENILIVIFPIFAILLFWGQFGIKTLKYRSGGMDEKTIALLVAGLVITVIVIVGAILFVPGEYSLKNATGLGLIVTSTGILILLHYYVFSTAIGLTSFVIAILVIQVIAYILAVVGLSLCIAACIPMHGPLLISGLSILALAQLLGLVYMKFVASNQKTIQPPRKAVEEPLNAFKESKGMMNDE

In general, Kd refers to the free concentration of one partner at which half of the binding sites on the other are occupied at equilibrium, for simple one-to-one binding. Take SIRPα ECD (from UniProt P78324): the dissociation constant (Kd) is 2000 nM.
